The results in this text go back to patent US20100297606A1.

In this assay the target is humanized anti-human IL-6 receptor monoclonal IgG antibody MRA (tocilizumab), untreated. The experiment in a line: dot blot of untreated MRA on nitrocellulose (1.5 to 100 ng per spot), biotinylated peptide with HRP-conjugated streptavidin.

Take Fc-III peptide: the detection limit is 6 ng/spot.
